We go through four molecules from publication PMC5526789, “Structure of Full-Length SMC and Rearrangements Required for Chromosome Organization” (Molecular Cell, 2017).

In data set [1] the target is Smc(D193C, mH, E1118Q)-HaloTag (Bacillus subtilis) (UniProt P51834). Briefly: cross-linking; in vivo cysteine cross-linking: intact B. subtilis cells grown in SMG, 0.5 mM BMOE on ice; Smc-HaloTag labelled with HaloTag-TMR, SDS-PAGE, in-gel fluorescence; S152C and D193C report juxtaposed (disengaged) heads of the rod, K1151C ATP-engaged heads, A715C the arm/arm interface near the hinge.

For data set [2], the target named is Smc(S152C, mH, E1118Q)-HaloTag (Bacillus subtilis) (UniProt P51834). Described as above.
For data set [3], the target named is BsSmcH-CC8(N634C) (Bacillus subtilis) (UniProt P51834). Briefly: cross-linking; subunit exchange: equal amounts of two purified single-cysteine proteins mixed on ice, incubated at 37°C in 50 mM Tris-HCl pH 7.4, 200 mM NaCl, 1 mM TCEP; aliquots cross-linked with 200 µM BMOE (R558C to N634C at the hinge dimer interface); SDS-PAGE and Agilent 2100 Bioanalyzer; dimer to monomers.

Data set [4] concerns the molecule itself. Briefly: crystal structure; BsSmcCC2, hanging drop, 4°C, PEG 3350, Tris pH 8, MPD, calcium acetate; space group P1, two dimers in the asymmetric unit.

For “Smc(D193C, mH, E1118Q)-HaloTag (from UniProt P51834 1-1186) (natural protein)”, the cross-linking relative to wild type (% of wild-type levels) in data set [1] was found to be 20.

“Smc(S152C, mH, E1118Q)-HaloTag (from UniProt P51834 1-1186) (natural protein)” showed a cross-linking relative to wild type (% of wild-type levels) in data set [2] of 20. For the molecule “BsSmcH-CC8(R558C) (from UniProt P51834 519-637) (domain or fragment)”, in data set [3], the half-life of the hinge dimer (subunit exchange) worked out at 49 min.

B1: BsSmcCC2 (domain or fragment, Bacillus subtilis)
chain: EKVQMAKEEELAESSAISAKEAKIEDTRDKIQALDESVDELQQVLLVTSEELEKLEGRKEVLKERKKNAVQNQEQLEEAIVQFQQKETVLKEELSKQEAVFETLQAEVKQLRAQVKEKQQALSLHNENVEEKIESGGSGGSRLTKQKQTQSSTKESLSNELTELKIAAAKKEQACKGEEDNLARLKKELTETELALKEAKEDLSFLTSEMSSSTSGEEKLEEAAKHKLNDKTKTIELIALRRDQRIKLQHGLDTYERELKEMKRLYKQKTTLLKDEEV
notes: Smc of Bacillus subtilis, residues 246-379 (N-terminal coiled-coil helix); linker; Smc of Bacillus subtilis, residues 793-929 (C-terminal coiled-coil helix); Selenomethionine-labelled protein was used for the SAD data; also called Smc middle segment; Bs Smc (246-379)/SGGSGGS/(793-929); source: E. coli BL21[DE3], purified (His-Trap, MonoQ, TEV cleavage, Superdex 200); not shown: His6, N-terminal, …
With B1, in data set [4], the binding result is “binds”.
